For 4 substances, stoichiometry N results are on record in PMC5465079.

Common to all, as to assay: SEC; purified enzymes that were not crosslinked, on Superdex 200; native mass estimated from the elution
Assay [1] addresses SCR3 (Candida parapsilosis CCTCC M203011).
For assay [2], the target named is ADHR (Lactobacillus kefiri DSM 20587).
Assay [3] concerns the target SCR1 (Candida parapsilosis CCTCC M203011).
In assay [4] the target is wild-type (S)-carbonyl reductase II (Candida parapsilosis CCTCC M203011).

With SCR3 (enzyme), the stoichiometry N in assay [1] is 4.

As for ADHR (enzyme), in assay [2], the stoichiometry N is 4.

As to SCR1 (enzyme), the stoichiometry N in assay [3] is 4.

As for “wild-type (S)-carbonyl reductase II (enzyme)”, in assay [4], the stoichiometry N was 4.
